Target: Ku heterodimer (Ku70 and Ku80) (UniProt P12956)
UniProt P12956, sequence (P12956 whole entry, chain 1 of 2): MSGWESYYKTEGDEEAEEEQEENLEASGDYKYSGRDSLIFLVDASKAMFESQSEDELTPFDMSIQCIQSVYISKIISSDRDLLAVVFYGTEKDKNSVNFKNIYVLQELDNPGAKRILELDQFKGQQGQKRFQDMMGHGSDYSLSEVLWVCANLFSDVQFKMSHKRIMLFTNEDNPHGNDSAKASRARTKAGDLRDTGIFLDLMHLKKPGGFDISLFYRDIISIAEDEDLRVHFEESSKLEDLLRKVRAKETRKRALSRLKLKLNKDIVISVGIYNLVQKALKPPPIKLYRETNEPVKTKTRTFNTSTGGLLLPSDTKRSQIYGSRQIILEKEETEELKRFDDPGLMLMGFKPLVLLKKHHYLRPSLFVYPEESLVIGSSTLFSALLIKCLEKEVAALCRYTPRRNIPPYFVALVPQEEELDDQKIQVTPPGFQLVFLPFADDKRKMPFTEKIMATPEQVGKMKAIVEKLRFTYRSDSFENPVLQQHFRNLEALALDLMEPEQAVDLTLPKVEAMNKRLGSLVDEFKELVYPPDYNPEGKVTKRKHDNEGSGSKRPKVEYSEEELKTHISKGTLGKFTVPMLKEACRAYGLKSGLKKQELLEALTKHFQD
UniProt P12956, sequence (P13010 whole entry, chain 2 of 2, further chain): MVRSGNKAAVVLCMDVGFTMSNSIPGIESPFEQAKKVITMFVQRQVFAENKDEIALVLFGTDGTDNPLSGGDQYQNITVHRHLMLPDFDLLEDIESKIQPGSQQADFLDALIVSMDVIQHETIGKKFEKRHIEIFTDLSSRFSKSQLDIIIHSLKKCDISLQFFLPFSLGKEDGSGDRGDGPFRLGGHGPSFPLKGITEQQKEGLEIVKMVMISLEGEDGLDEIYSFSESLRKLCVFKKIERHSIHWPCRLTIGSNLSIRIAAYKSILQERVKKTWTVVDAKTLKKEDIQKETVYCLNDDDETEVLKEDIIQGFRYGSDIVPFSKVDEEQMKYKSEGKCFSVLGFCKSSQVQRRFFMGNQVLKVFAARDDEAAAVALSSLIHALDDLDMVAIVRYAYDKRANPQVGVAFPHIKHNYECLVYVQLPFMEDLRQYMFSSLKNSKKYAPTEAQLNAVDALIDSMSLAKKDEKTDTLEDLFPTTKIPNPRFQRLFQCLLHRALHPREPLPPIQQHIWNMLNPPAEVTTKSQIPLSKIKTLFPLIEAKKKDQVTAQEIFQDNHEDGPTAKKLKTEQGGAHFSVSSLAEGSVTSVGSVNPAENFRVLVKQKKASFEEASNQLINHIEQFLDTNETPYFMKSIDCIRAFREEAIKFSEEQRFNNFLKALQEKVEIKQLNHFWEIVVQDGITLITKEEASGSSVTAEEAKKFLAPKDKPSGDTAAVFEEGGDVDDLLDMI

## PAXX (paralog of XRCC4 and XLF) (from UniProt Q9BUH6 1-204) (natural protein)
  NHEJ efficiency of blunt-ended DNA with Ku, DNA-PKcs, Artemis, X4·LIV and Pol μ, without or with 500 nM PAXX (Fig. 7B, lanes 12–15): 2 fold

Reference: PMC5114395
